{"source": "the nanobody polyreactivity screen of Harvey et al. (2022)", "data": [{"assay": "yeast display, Sf9 membrane polyspecificity reagent, FACS + sequencing; frameworks hold sequencing errors", "outline": "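Synthetic nanobody libraries on Saccharomyces cerevisiae BJ5465 were galactose-induced for 36–48 hours, stained 1 hour at 4 °C with 10% biotinylated, detergent-solubilized Sf9 membrane reagent and enriched on streptavidin microbeads. FACS then separated cells into low and high (top ~1%) gates by anti-HA (expression) and streptavidin (reagent binding) fluorescence. Genes were colony-PCR amplified, MiSeq 2 × 250 sequenced and CDR-length filtered. A clone's polyreactivity label is that of its gate of origin.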", "values": [{"sequence": "QVQLVESGGGLVQAGGSLRLRCAASVRTFYTYAMGWYRQAPGKERELVAAISKRGTSTYYADSVKGRFTISRDNAKNTDYFQMNSLKPQDTAVYYCAAAVYQRARYYWGQGTQVTVSS", "polyreactivity (PSR sort gate)": "high polyreactivity"}, {"sequence": "QVQLVESGGGLVQAGGSLRLRGAASGGILVGYAMGWYRQAPGKERELVAAINYSGGSTNYADSVKGRFTISRDNAKNTVYLQMNSLKPEDTAVYYCAARSTARYGYWGQGTQVTVSS", "polyreactivity (PSR sort gate)": "low polyreactivity"}, {"sequence": "QVQLVESGGGLVQAGGSLRLRWDASGRILWYNAMGWYRQAPGKERELVAAIRSGGRTHYADSVKGRFTISRDNAKNTVYLQMNCLKPEDTAVYYCAARSVPYPYRRNPYDYWGQGTQVTVSS", "polyreactivity (PSR sort gate)": "high polyreactivity"}, {"sequence": "QVQLVESGGGLVQAGGSLRLSCAAAGRTFYSYAMGWYRQAPGKEREFVAAINWSGTSTYADSVKGRFTISRDNAKNTVYLQMTSLKPEDTAVYYCAADLPAEYYHWGQGTQVTVSS", "polyreactivity (PSR sort gate)": "high polyreactivity"}, {"sequence": "QVQLVESGGGLVQAGGSLRLSCAAAGRTVPRYTMGWYRQAPGKEMELVAAISRGGSTNYAYSVKGLFTISRDNAKNTVYLVMNSLKPEDTAVYYCNADYWYDWKSYDYWGEGTQVTVSS", "polyreactivity (PSR sort gate)": "high polyreactivity"}, {"sequence": "QVQLVESGGGLVQAGGSLRLSCAAAGSTFHRYVMGWYRQAPGQERELVAVINSTGGSTYYADSVKGRFTISRDNAKNTVYLQMKCLKPEDTAVYYCARVTRRGPGYSTLFSRYDYWGQGTQVTVSS", "polyreactivity (PSR sort gate)": "low polyreactivity"}, {"sequence": "QVQLVESGGGLVQAGGSLRLSCAAARIFVYNAMGWYRQAPGKERELVATITSSGGITYYADSVKGRFTISRDNAKNTVYLQMKSLKPEDTAVYYCNKVRRYYYRTHNVYWGQGTQVTVSS", "polyreactivity (PSR sort gate)": "high polyreactivity"}, {"sequence": "QVQLVESGGGLVQAGGSLRLSCAAARYAMGWYRQAPGKERELVAAISKSGGSTYYADSVKGRFTISRDNAKNTVYLQMNSLKPEDTAVYYCAARGHAGRGEYYYWGQGTQVTVSS", "polyreactivity (PSR sort gate)": "high polyreactivity"}, {"sequence": "QVQLVESGGGLVQAGGSLRLSCAACGFTFWDYAMGWYSQAPGKERELVAAISDNDGSTDYADSVKGRFTISRDNAKNTVYLQMNSLKPEDSAVYYCNAEIELPSKEGDYWGQGTQVTVSS", "polyreactivity (PSR sort gate)": "low polyreactivity"}, {"sequence": "QVQLVESGGGLVQAGGSLRLSCAACGIIFEYNAMGWYRQAPGKVRELVASIDSGGSTNYADSVKGRFTISRDNAKNTVYLQKNSLKPEDTAVYYCNADDTTVSPWYYYYQSYYWGQGTQVTVSS", "polyreactivity (PSR sort gate)": "low polyreactivity"}, {"sequence": "QVQLVESGGGLVQAGGSLRLSCAACGRTFQHYAMGWYRQAPGKERELVAAISSGGRTYYADSVKGRFTISRDNAKNTVYLLMNSLKPEDTAVYYCAARYHGRDPRQIRYGYWGQGTQVNVSS", "polyreactivity (PSR sort gate)": "high polyreactivity"}, {"sequence": "QVQLVESGGGLVQAGGSLRLSCAACGRTFWSYAMGWYLQAPGKERELVAAINSGGSTDYADSVKGRFTISRDNAKNTVYLQMNSLKPEDTAVYYCAADTWYGFDWGQGTQVTVSS", "polyreactivity (PSR sort gate)": "high polyreactivity"}, {"sequence": "QVQLVESGGGLVQAGGSLRLSCAACGSIFYYYAMGWYRQAPGKERELVAAITVSGGRTYYADSVKGRFTISRDNAKNSVYLQMNSLKPEDTAVYYCAARRGRYSYYYWGQGTQVTVSS", "polyreactivity (PSR sort gate)": "high polyreactivity"}, {"sequence": "QVQLVESGGGLVQAGGSLRLSCAACGSTFSPNAMGWYRQAPGKERELVAAISGSGASTYYADSVKGRFTISRDNAKNTVYLQMNSLKPEDTAVYYCAADKPGIFSRFDYWGQGTQVTVSS", "polyreactivity (PSR sort gate)": "low polyreactivity"}, {"sequence": "QVQLVESGGGLVQAGGSLRLSCAACGSTFSVHAMGWYRQAPGKERELVAAISWGGTSTYYADSVKGRFTISRDNAKNTVYLQMNSLKPEDTAVYYCAAVSRGKVNTVYYWGQGTQVTVSS", "polyreactivity (PSR sort gate)": "high polyreactivity"}, {"sequence": "QVQLVESGGGLVQAGGSLRLSCAADGFTFYVYAMGWYRQAPGKERELVADISRRGGSTYYADYVKGRFTISRDNEKNHVYLQMNSLKPEDTAVYYCAAQYYGGGTYWYRYGYWGQGTQVTLSS", "polyreactivity (PSR sort gate)": "high polyreactivity"}, {"sequence": "QVQLVESGGGLVQAGGSLRLSCAAPGLTFWSYAMGWYRPAPGKERELVADITYRGGSTYYADSVKGRFTISRDNAKNTVYLQMNSLKPEDTAVYYCAARKKYRFDYWGQGTQVTVSS", "polyreactivity (PSR sort gate)": "high polyreactivity"}, {"sequence": "QVQLVESGGGLVQAGGSLRLSCAAPGSIFGTNAMGWYRQAPGKERELVAAINWSGGTTYYADSVKGRFTISRDNAKNTVYLQMNSLKPEDTAVYYCATVFFVLPPTRFDSWGQGTQVTVSS", "polyreactivity (PSR sort gate)": "low polyreactivity"}, {"sequence": "QVQLVESGGGLVQAGGSLRLSCAASAFTFKYNVMGWYRQAPGTERELLAAISKRGGNTYYADSVKGRFTISRDNAKNTVYLQMNSLKPEDTAVYYCAADPTSPETSGQGYDYWGQGTQVTVSS", "polyreactivity (PSR sort gate)": "high polyreactivity"}, {"sequence": "QVQLVESGGGLVQAGGSLRLSCAASAFTFYTNAMGWYRQAPGKERELVAAISGGGSTKYADSVKGRFTISRDNAKNTVYLQMNSLKPEDTAVYYCAAQIKWGYRRNRHDYWGQGTQVTVSS", "polyreactivity (PSR sort gate)": "high polyreactivity"}, {"sequence": "QVQLVESGGGLVQAGGSLRLSCAASAITVKRDVMGWYRQAPGKERELVAAISRTGGSTYYADSVKGRFTISRDNAKNTVYLQMNSLKPEDTAVYYCAAATCPGIYDYWGQGTQVTVSS", "polyreactivity (PSR sort gate)": "high polyreactivity"}, {"sequence": "QVQLVESGGGLVQAGGSLRLSCAASALTFQAYTMGWYRQAPGKERELDAAISRNGGRTYYADSVKGRFTISRDNAKNTVYLQMNSLKPEDTAVYYCAAVHFVVSPGRGDDYWGQCTQVTVSS", "polyreactivity (PSR sort gate)": "high polyreactivity"}, {"sequence": "QVQLVESGGGLVQAGGSLRLSCAASALTLRHYAMGWYRQAPGKERELVARIRISGRTYYADSVKGRFTISRDNAKNTVYLQMNSLKPEDTAVYYCAKVQFATSPPGLTLSYYYWGQGTQVTVSS", "polyreactivity (PSR sort gate)": "high polyreactivity"}, {"sequence": "QVQLVESGGGLVQAGGSLRLSCAASANTFPTNAMGWYRQAPGKEMELVATISLGAGSTHYADSVKVRFTISRDNAKNTVYLQMNSLTPEDTAVYYCAARSRRWYDYDYWGQGTQVTVSS", "polyreactivity (PSR sort gate)": "low polyreactivity"}, {"sequence": "QVQLVESGGGLVQAGGSLRLSCAASARIFRYYAMGWYRQAPGKERELVAGISWRGSSTYYADSVKGRFTISRDNAKNTVYLQMNSLKPEDTAVYYCNRDQSNIPVTGGRFYYWRQGTQVTVSS", "polyreactivity (PSR sort gate)": "high polyreactivity"}, {"sequence": "QVQLVESGGGLVQAGGSLRLSCAASARTLAHYTMGWYRQAPGKERELVAAITFSGGRTYYADSVKGRFTISRDTAKNTVYLQMNSLKPEDTAVYYCNADGYWVVPLDDSYEYWGQGTQVTVSS", "polyreactivity (PSR sort gate)": "low polyreactivity"}, {"sequence": "QVQLVESGGGLVQAGGSLRLSCAASASIFASNAMGLYRQAPGKERELVAAINSADSTNYADSVKGRFRISRDNAKNTVYLQMNRLKPEDPAVFYCARGLEERYDYWGLGTQVTVSS", "polyreactivity (PSR sort gate)": "low polyreactivity"}, {"sequence": "QVQLVESGGGLVQAGGSLRLSCAASASIFDHYAMGCYRQAPGKARELVAAITWDGTSTYYADSVKGRFTISRDNAKNTVYLQMNSLKPEDTAVYYCADDFYPYSWEEVDYWGQGTQVTVSS", "polyreactivity (PSR sort gate)": "low polyreactivity"}, {"sequence": "QVQLVESGGGLVQAGGSLRLSCAASASIFVNNAKGWYRQATGKERELVAAISSRSSRTIYADSVKGRFTISRDNAKKTVYLQMNSLKPEDTAVYYCAVKKRAPDGDYWGQGTQVTVSS", "polyreactivity (PSR sort gate)": "high polyreactivity"}, {"sequence": "QVQLVESGGGLVQAGGSLRLSCAASASIYFPYTMGWYRQAPGKERELVARISLGGGRTYYADSVKGRFTISRDNAKNTVYLQMNSLKPEDTAVYYCAAVYYYGKWSYGYWIYEYWGQGTQVTVSS", "polyreactivity (PSR sort gate)": "high polyreactivity"}, {"sequence": "QVQLVESGGGLVQAGGSLRLSCAASASTFGGYVMARYRQAPGKERELVAAISGNGASTTYADSVKGRFTISRDNAKNTVYLQMNSLKPEDTAVYDSAALFRKAHSDYDYWGQGTQVTVSS", "polyreactivity (PSR sort gate)": "low polyreactivity"}, {"sequence": "QVQLVESGGGLVQAGGSLRLSCAASCVRNAMGWYRQAPGKERELVAAITSGGNTNYADSVKGRFTISRDNAKNTVYLQMNSLKPEDTAVYYCAKDLLYYTQQGTGVVDYDYWGQGTQVTVSS", "polyreactivity (PSR sort gate)": "low polyreactivity"}]}]}
